According to publication PMC5712780, “Ymr210wp leads to the accumulation of phospholipids and steryl esters in yeast” (Bioinformation, 2017):

Assays:
Experiment in all cases: p-nitrophenyl ester hydrolysis assay, Michaelis-Menten fit
Type in all cases: biochemical, Saccharomyces cerevisiae
[1] = substrate: CC(=O)Oc1ccc([N+](=O)[O-])cc1; conditions: optimum pH 7.5 and 30°C (kinetic conditions not stated); text b29 prints error ±2.95; pH 7.5; 30.0 °C
Text: (§1) p-nitrophenyl ester hydrolysis assay, Michaelis-Menten fit on Ymr210wp

[2] = substrate: CCCC(=O)Oc1ccc([N+](=O)[O-])cc1; conditions: optimum pH 7.5 and 30°C (kinetic conditions not stated); pH 7.5; 30.0 °C
Text: as §1

[3] = substrate: CCCCCCCCCCCCCCCC(=O)Oc1ccc([N+](=O)[O-])cc1; conditions: optimum pH 8.5 and 45°C (kinetic conditions not stated); pH 8.5; 45.0 °C
Text: as §1

B1: Ymr210wp (Saccharomyces cerevisiae S288C) (protein)
chain: MRLKELLPNFLIVHQEVPEDPIAFKSTDKRENENKEITIPELIDTKVPELADGATDTLYGLLVNGHLQTAYGSFRHFDNIYKVQYKRMIIKYPHGGEGTVDFAVNGRSTKRRKVEKEYVPTSQPVFNGNLKRRYSYYSPDDPKLNSDDAKPMLIILHGLTGGSRESYVRAIVHEITTKYDFEACVFNARGCCYSAITTPLLYNGGWTNDIRYCVNDLRKRFPNRKFYMMGFSLGASIMTNYLGEESDRTKIECAISVSNPFDLYNSAYFINSTPMGSRFYSPALGHNLLRMVRNHLSTLEENPDFKDVIEKHLKKIRTVRQFDNLLTGPMFGYKNAEEYYKNASSYKRIPGIRTPFIALHAQDDPIVGGDLPIDQIKSNPYTLLLETSTGGHVGWFKDRSGRRWYAEPLCRFLKIFHDEITVKGLKPDLENVQLPDPNCEPIATTFRAN
notes: YMR210w cloned in pYES2/CT, His-tagged, expressed in S. cerevisiae BY4741, Ni-NTA purified
**Q.** B1 was tested. Which Km [1] did it give?
**A.** The Km was 11.51 ± 1.09 mM.

**Q.** And the Km [2]?
**A.** Its Km is 7.28 ± 1.61 mM.

**Q.** And the Km [3]?
**A.** The Km was 13.19 ± 1.03 mM.
